Assays:
VEGFR-1 = target: T1, VEGFR-1 (UniProt P17948 27-1338, limits assumed); assay: galectin-agarose pulldown from primary LECs, western blot (FIG. 21A)
T1 construct: whole, on cells
Procedure: Primary LECs were incubated with agarose beads (control), and galectin-conjugated agarose beads at 4° C. overnight. Unbound proteins were removed and the bound proteins were eluted with 20 μL of 2× Laemmli sample buffer and analyzed and compared to control input by western blotting. […] LEC lysates incubated with unconjugated beads served as a negative control.

recombinant galectin-3 = target: T2, recombinant galectin-3 (UniProt P17931 2-250); assay: galectin-agarose pulldown from LEC lysates, anti-PDPN western blot (FIG. 7A)
T2 construct: also called Gal-3
T2 sequence (P17931 2-250 limits assumed): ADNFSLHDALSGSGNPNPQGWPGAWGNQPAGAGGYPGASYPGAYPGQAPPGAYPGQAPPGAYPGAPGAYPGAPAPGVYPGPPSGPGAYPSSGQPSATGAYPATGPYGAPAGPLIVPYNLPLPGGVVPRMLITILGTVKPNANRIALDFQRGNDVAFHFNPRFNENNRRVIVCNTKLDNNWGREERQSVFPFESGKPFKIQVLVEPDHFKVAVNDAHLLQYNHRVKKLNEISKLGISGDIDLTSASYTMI
Procedure: Bound proteins were examined and were compared to total cell lysates (input) by western blot using anti-PDPN. […] Primary LECs were transfected with control (mock) or two siRNA that targeted different regions of PDPN. Knockdown efficiency was assessed by western blot using anti-PDPN and anti-β-actin antibodies. […] Primary LECs were transfected with control or PDPN siRNA. […] Data are plotted as mean±SEM and analyzed using Student's t test (FIG. 7C and FIG. 7F). *P<0.05, ***P<0.001 vs corresponding control.
Bound proteins were examined with total cell lysates (input) by western blot using an anti-PDPN antibody.

T1 sequence (P17948 27-1338 limits assumed): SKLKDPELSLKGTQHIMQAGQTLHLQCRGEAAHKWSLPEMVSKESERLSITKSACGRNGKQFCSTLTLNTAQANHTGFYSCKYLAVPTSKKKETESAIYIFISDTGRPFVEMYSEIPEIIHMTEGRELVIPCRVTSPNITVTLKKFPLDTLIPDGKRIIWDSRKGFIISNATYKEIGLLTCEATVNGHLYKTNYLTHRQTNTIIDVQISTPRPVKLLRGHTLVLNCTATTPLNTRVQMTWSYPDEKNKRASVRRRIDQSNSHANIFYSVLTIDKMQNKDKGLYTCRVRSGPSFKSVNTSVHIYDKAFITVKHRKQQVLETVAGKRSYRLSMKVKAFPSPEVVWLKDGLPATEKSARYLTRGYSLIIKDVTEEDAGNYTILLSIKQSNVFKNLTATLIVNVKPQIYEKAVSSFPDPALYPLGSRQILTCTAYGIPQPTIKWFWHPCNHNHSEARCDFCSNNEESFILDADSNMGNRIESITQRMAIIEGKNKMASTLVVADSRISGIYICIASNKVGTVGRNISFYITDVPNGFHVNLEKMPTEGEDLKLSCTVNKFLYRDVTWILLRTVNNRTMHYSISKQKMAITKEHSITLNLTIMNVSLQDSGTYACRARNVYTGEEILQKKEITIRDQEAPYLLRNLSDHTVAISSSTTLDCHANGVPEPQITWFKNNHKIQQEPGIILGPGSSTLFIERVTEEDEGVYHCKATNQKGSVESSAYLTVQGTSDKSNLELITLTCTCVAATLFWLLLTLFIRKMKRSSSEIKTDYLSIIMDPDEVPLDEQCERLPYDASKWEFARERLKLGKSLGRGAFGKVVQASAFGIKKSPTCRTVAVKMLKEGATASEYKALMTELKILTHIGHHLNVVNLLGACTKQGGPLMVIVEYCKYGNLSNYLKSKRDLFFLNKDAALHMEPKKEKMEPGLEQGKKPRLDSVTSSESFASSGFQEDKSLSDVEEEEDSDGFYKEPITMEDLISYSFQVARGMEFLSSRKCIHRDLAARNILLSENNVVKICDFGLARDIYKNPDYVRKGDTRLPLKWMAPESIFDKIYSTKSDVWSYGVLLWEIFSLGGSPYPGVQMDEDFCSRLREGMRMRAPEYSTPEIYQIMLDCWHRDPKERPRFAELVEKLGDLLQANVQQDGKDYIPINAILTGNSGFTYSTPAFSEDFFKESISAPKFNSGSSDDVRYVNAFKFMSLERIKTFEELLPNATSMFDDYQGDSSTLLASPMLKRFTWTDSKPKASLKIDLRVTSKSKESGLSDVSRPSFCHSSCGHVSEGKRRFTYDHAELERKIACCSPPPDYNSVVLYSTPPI

binding result (VEGFR-1)	binding result (recombinant galectin-3)	Binder
no binding		recombinant full-length galectin-8 (other, UniProt O00214 1-317, looked up, mature; Tandem-repeat lectin with an N-CRD and a C-CRD; also called Gal-8; exogenous Gal-8) MMLSLNNLQNIIYNPVIPFVGTIPDQLDPGTLIVIRGHVPSDADRFQVDLQNGSSMKPRADVAFHFNPRFKRAGCIVCNTLINEKWGREEITYDTPFKREKSFEIVIMVLKDKFQVAVNGKHTLLYGHRIGPEKIDTLGIYGKVNIHSIGFSFSSDLQSTQASSLELTEISRENVPKSGTPQLRLPFAARLNTPMGPGRTVVVKGEVNANAKSFNVDLLAGKSKDIALHLNPRLNIKAFVRNSFLQESWGEEERNITSFPFSPGMYFEMIIYCDVREFKVAVNGVHSLEYKHRFKELSSIDTLEINGDIHLLEVRSW
	no binding	podoplanin (receptor, human, UniProt Q86YL7 23-162, looked up, O-glycosylated with alpha2,3-sialyl glycans, whole, on cells; Endogenous protein from LEC lysates in the pulldowns and co-immunoprecipitation; also called PDPN) ASTGQPEDDTETTGLEGGVAMPGAEDDVVTPGTSEDRYKSGLTTLVATSVNSVTGIRIEDLPTSESTVHAQEQSPSATASNVATSHSTEKVDGDTQTTVEKDGLSTVTLVGIIVGVLLAIGFIGAIIVVVMRKMSGRYSP

Source: patent publication US20170202915A1 (TUFTS UNIVERSITY, published 2017)
